For 3 proteins, Km, kcat and kcat/Km results are on record in patent US9012186B2, “Hemicellulose-degrading enzymes” (The Board of Trustees of the University of Illinois, priority 2009, dated 2015).

For orientation: Km means the concentration of substrate that gives half-maximal velocity. By kcat is commonly meant the number of substrate molecules converted per active site and unit of time at saturation. The term kcat/Km denotes the turnover number divided by the Michaelis constant.

Format in all cases: biochemical, Prevotella bryantii
Substrate in data set [1]: O=[N+]([O-])c1ccc(O[C@@H]2OC[C@@H](O)[C@H](O)[C@H]2O)cc1
The data set is described as follows: Steady state kinetics of pNP substrate hydrolysis, Pb911 WT. To be noted: other: Pb911 WT, pNP assay per Example 2 (sodium citrate, pH 5.5, 37° C.). How it is done: (§1) Enzyme-catalyzed hydrolysis of para-nitrophenyl (pNP)-linked monosaccharide substrates was assayed using a thermostated Synergy II multi-mode microplate reader from BioTek Instruments Inc. (Winooski, Vt.). A library of pNP substrates were screened for activity including: pNP-α-L-arabinopyranoside, pNP-α-L-arabinofuranoside, pNP-β-D-fucopyranoside, pNP-α-L-fucopyranoside, pNP-α-D-galactopyranoside, pNP-β-D-galactopyranoside, pNP-α-D-glucopyranoside, pNP-β-D-glucopyranoside, pNP-β-D-maltopyranoside, pNP-α-D-maltopyranoside, pNP-α-D-mannopyranoside, pNP-β-D-mannopyranoside, pNP-α-L-rhamnopyranoside, pNP-β-D-xylopyranoside, pNP-β-D-cellobioside. The substrates (1 mM) in citrate buffer (100 μL; 50 mM sodium citrate, 150 mM NaCl, pH 5.5) were incubated at 37° C. in the presence or absence of Pb886 (0.2 μM) for 30 min, and the level of pNP release was determined by continuously monitoring the absorbance at 400 nm. The pathlength correction feature of the instrument was employed to convert the absorbance values recorded to correspond to a 1 cm pathlength. The extinction coefficient for pNP at pH 5.5 and a wavelength of 400 nm was measured as 0.673 mM^−1cm^−1.
(§2) FIG. 4c illustrates the kinetics of pNP substrate hydrolysis. The activity of Pb886 was verified with para-nitrophenyl derivatives of xylose and arabinose as indicated in the x-axes. These substrates are artificial substrates for the enzyme. Kinetic studies of Pb886 were performed using a thermostated Synergy II multi-mode microplate reader from BioTek Instruments Inc. (Winooski, Vt.). pNP-β-D-Xylopyranoside (0-46.25 mM) or pNP-α-L-arabinofuranoside (0-25 mM) were incubated in a citrate reaction buffer (100 μL; 50 mM sodium citrate, 150 mM NaCl, pH 5.5) at 37° C. in a 96-well flat bottom microtiter plate, and reactions were initiated by the addition of Pb886 (0.2 μM). Hydrolysis of pNP-β-D-xylopyranoside and pNP-α-L-arabinofuranoside were continuously monitored by recording the UV signal at 400 nm. Initial rate data were then plotted against the substrate concentration, and kinetic values were estimated by applying a nonlinear curve fit using GraphPad Prism v5.02 from GraphPad Software (San Diego, Calif.). The extinction coefficient for para-nitrophenol at pH 5.5 and a wavelength of 400 nm was measured as 0.673 mM^−1cm^−1.
(§3) Pb911 protein was expressed and purified according to the methods described in Example 1. […] The activity of Pb911 on pNP substrates was measured according to the methods described in Example 2.

Substrate in data set [2]: O=[N+]([O-])c1ccc(O[C@@H]2O[C@H](CO)[C@@H](O)[C@H](O)[C@H]2O)cc1
The data set is described as above. Conditions: other: Pb911 WT, pNP assay per Example 2 (sodium citrate, pH 5.5, 37° C.). How it is done:
as §1, §2, §3

Substrate in data set [3]: O=[N+]([O-])c1ccc(O[C@@H]2OC[C@@H](O)[C@H](O)[C@H]2O)cc1
Description: Steady state kinetics of pNP substrate hydrolysis, Pb911 E115D. To be noted: other: Pb911 E115D, pNP assay per Example 2 (sodium citrate, pH 5.5, 37° C.). The protocol:
as §1, §2, §3

Substrate in data set [4]: O=[N+]([O-])c1ccc(O[C@@H]2O[C@H](CO)[C@@H](O)[C@H](O)[C@H]2O)cc1
The data set is described as above. Conditions: other: Pb911 E115D, pNP assay per Example 2 (sodium citrate, pH 5.5, 37° C.). The protocol:
as §1, §2, §3

Substrate in data set [5]: O=[N+]([O-])c1ccc(O[C@@H]2OC[C@@H](O)[C@H](O)[C@H]2O)cc1
Description: Steady state kinetics of pNP substrate hydrolysis, Pb911 E115A. To be noted: other: Pb911 E115A, pNP assay per Example 2 (sodium citrate, pH 5.5, 37° C.). How it is done:
as §1, §2, §3

Substrate in data set [6]: O=[N+]([O-])c1ccc(O[C@@H]2O[C@H](CO)[C@@H](O)[C@H](O)[C@H]2O)cc1
Described as above. Conditions: other: Pb911 E115A, pNP assay per Example 2 (sodium citrate, pH 5.5, 37° C.). How it is done:
as §1, §2, §3

B1: Prevotella bryantii β-xylosidase/β-glucosidase Pb911 (alternatively named Pb2369), wild type, SEQ ID NO: 6 (Segatella baroniae B14) (protein)
chain: QTILINQQVDALYDRMSQEERINQLRSGYMDDLFDEQGNLDTVKCKELIPFGIGHFSQYASQKPLDANILRDRVAAVQDWLIHHTPNGIPALFHEEVLSGVNTKDATIYPQQIGQACSFNPELAERKTLQTGIDMRKMGGVLSLSPMVDVCRNPSFNRLEESYGEDGYLSAVMGTAFVKGLQQGDLTKGVGACSKHYLGYGGGGDAKEKEMMEEILLPHETMIRLAGSKALMPGYHAVHGTNCVANHEILTDILRGYLGFDGMVVSDYTAIDQIPGLDTPLQKATAAINAGNDVDFPHGANYKFLQEGLDKGMVKSEAFERAVKDVLRHKYRQGLFDKNAYLYSKDPIQLDSKEERQTAYDIATQSVVLLENKGILPLRGKQNIFVTGPNANTMWAMCGDYSFPAMTYFWKKVTEDLDHPHIVKLLEGMKDRKPAGINISYSRGCDWTDTIETKYAVSGDERAWEYEVLHRKVDSGEKADETEALAMAKEADVIIAAVGENVMLCGENRDRQGLCLPGHQEQYVERLLATGKPVVLVVFGGRAQVISNIANRCAAVIQAWYPGEEGGHAVADILYGNVSPSAKLSVSYPNVELNEPICYNYSAKQDSRVAWPFGYGLSYTTFDYSNLEVPTEVKTSDESLHIAFEVANTGKMDADEIAQVYLSPTQENQNIRPIQLQGFARISLKAGERKKVKVKLYTEQFGYYSNNGKRQWNIAPGTFTVKIGASSQDIKLQKNITVKGDIVVKPLRDFYFSEVIK
As to B1, in data set [1], the Km is listed as 8.4 ± 1 mM, the kcat was found to be 250 ± 10 s⁻¹ and the specificity constant (kcat/Km) stood at 30000 ± 4000 M⁻¹ s⁻¹. In data set [2], the Michaelis constant (Km) is on record as 22 ± 1 mM, the catalytic constant (kcat) was determined as 19 ± 0.6 s⁻¹ and the kcat/Km was found to be 860 ± 50 M⁻¹ s⁻¹.

B2: Prevotella bryantii β-xylosidase/β-glucosidase Pb911 (alternatively named Pb2369, wild type SEQ ID NO: 6) variant E115D (Segatella baroniae B14; E115D) (protein)
chain: QTILINQQVDALYDRMSQEERINQLRSGYMDDLFDEQGNLDTVKCKELIPFGIGHFSQYASQKPLDANILRDRVAAVQDWLIHHTPNGIPALFHEDVLSGVNTKDATIYPQQIGQACSFNPELAERKTLQTGIDMRKMGGVLSLSPMVDVCRNPSFNRLEESYGEDGYLSAVMGTAFVKGLQQGDLTKGVGACSKHYLGYGGGGDAKEKEMMEEILLPHETMIRLAGSKALMPGYHAVHGTNCVANHEILTDILRGYLGFDGMVVSDYTAIDQIPGLDTPLQKATAAINAGNDVDFPHGANYKFLQEGLDKGMVKSEAFERAVKDVLRHKYRQGLFDKNAYLYSKDPIQLDSKEERQTAYDIATQSVVLLENKGILPLRGKQNIFVTGPNANTMWAMCGDYSFPAMTYFWKKVTEDLDHPHIVKLLEGMKDRKPAGINISYSRGCDWTDTIETKYAVSGDERAWEYEVLHRKVDSGEKADETEALAMAKEADVIIAAVGENVMLCGENRDRQGLCLPGHQEQYVERLLATGKPVVLVVFGGRAQVISNIANRCAAVIQAWYPGEEGGHAVADILYGNVSPSAKLSVSYPNVELNEPICYNYSAKQDSRVAWPFGYGLSYTTFDYSNLEVPTEVKTSDESLHIAFEVANTGKMDADEIAQVYLSPTQENQNIRPIQLQGFARISLKAGERKKVKVKLYTEQFGYYSNNGKRQWNIAPGTFTVKIGASSQDIKLQKNITVKGDIVVKPLRDFYFSEVIK
With B2, in data set [3], the Michaelis constant (Km) came to 39 ± 4 mM, the kcat came out at 87 ± 5 s⁻¹ and the kcat/Km is 2200 ± 200 M⁻¹ s⁻¹. In data set [4], the Km is 17 ± 1 mM, the turnover number (kcat) came to 16 ± 0.4 s⁻¹ and the kcat/Km is 940 ± 60 M⁻¹ s⁻¹.

B3: Prevotella bryantii β-xylosidase/β-glucosidase Pb911 (alternatively named Pb2369, wild type SEQ ID NO: 6) variant E115A (Segatella baroniae B14; E115A) (protein)
chain: QTILINQQVDALYDRMSQEERINQLRSGYMDDLFDEQGNLDTVKCKELIPFGIGHFSQYASQKPLDANILRDRVAAVQDWLIHHTPNGIPALFHEAVLSGVNTKDATIYPQQIGQACSFNPELAERKTLQTGIDMRKMGGVLSLSPMVDVCRNPSFNRLEESYGEDGYLSAVMGTAFVKGLQQGDLTKGVGACSKHYLGYGGGGDAKEKEMMEEILLPHETMIRLAGSKALMPGYHAVHGTNCVANHEILTDILRGYLGFDGMVVSDYTAIDQIPGLDTPLQKATAAINAGNDVDFPHGANYKFLQEGLDKGMVKSEAFERAVKDVLRHKYRQGLFDKNAYLYSKDPIQLDSKEERQTAYDIATQSVVLLENKGILPLRGKQNIFVTGPNANTMWAMCGDYSFPAMTYFWKKVTEDLDHPHIVKLLEGMKDRKPAGINISYSRGCDWTDTIETKYAVSGDERAWEYEVLHRKVDSGEKADETEALAMAKEADVIIAAVGENVMLCGENRDRQGLCLPGHQEQYVERLLATGKPVVLVVFGGRAQVISNIANRCAAVIQAWYPGEEGGHAVADILYGNVSPSAKLSVSYPNVELNEPICYNYSAKQDSRVAWPFGYGLSYTTFDYSNLEVPTEVKTSDESLHIAFEVANTGKMDADEIAQVYLSPTQENQNIRPIQLQGFARISLKAGERKKVKVKLYTEQFGYYSNNGKRQWNIAPGTFTVKIGASSQDIKLQKNITVKGDIVVKPLRDFYFSEVIK
Regarding B3, in data set [5], the Michaelis constant (Km) was found to be 28 ± 3 mM, the kcat was 0.35 ± 0.02 s⁻¹ and the kcat/Km was 13 ± 2 M⁻¹ s⁻¹. In data set [6], the Km stood at 39 ± 4 mM, the turnover number (kcat) was 0.087 ± 0.005 s⁻¹ and the kcat/Km was found to be 2.2 ± 0.3 M⁻¹ s⁻¹.
